Assay results published in patent US20250109215A1 (Xencor, published 2025).
Numbering of substitutions follows the chain as printed.

T1: human CD123 (human, UniProt P26951 19-305, limits assumed)
T1 construct: Construct on the chip is not described; also called CD123 chip
T1 sequence (looked up): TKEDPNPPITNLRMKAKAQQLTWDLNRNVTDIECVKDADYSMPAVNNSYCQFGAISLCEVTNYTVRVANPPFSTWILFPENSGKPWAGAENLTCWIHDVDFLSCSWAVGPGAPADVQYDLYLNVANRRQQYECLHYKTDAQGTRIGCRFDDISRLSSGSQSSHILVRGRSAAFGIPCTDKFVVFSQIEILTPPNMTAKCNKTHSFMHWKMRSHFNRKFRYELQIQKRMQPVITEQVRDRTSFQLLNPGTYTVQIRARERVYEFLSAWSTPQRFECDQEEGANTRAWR

B1: XENP13243 (bispecific antibody)
heavy: EVQLVESGGGLVQPGGSLRLSCAASGFDFSRSWMNWVRQAPGKGLEWVSEINPDSSTINYATSVKGRFTISRDNSKNTLYLQMNSLRAEDTAVYYCARYGNWFPYWGQGTLVTVSSASTKGPSVFPLAPSSKSTSGGTAALGCLVKDYFPEPVTVSWNSGALTSGVHTFPAVLQSSGLYSLSSVVTVPSSSLGTQTYICNVNHKPSDTKVDKKVEPKSCDKTHTCPPCPAPPVAGPSVFLFPPKPKDTLMISRTPEVTCVVVDVKHEDPEVKFNWYVDGVEVHNAKTKPREEEYNSTYRVVSVLTVLHQDWLNGKEYKCKVSNKALPAPIEKTISKAKGQPREPQVYTLPPSREEMTKNQVSLTCDVSGFYPSDIAVEWESDGQPENNYKTTPPVLDSDGSFFLYSKLTVDKSRWEQGDVFSCSVMHEALHNHYTQKSLSLSPGK
scFv-Fc: not shown
light: DIVMTQSPSSLSASVGDRVTITCRASQNVDTNVAWYQQKPGQSPKALIYSASYRYSGVPDRFTGSGSGTDFTLTISSLQPEDFATYFCQQYDSYPLTFGGGTKLEIKRTVAAPSVFIFPPSDEQLKSGTASVVCLLNNFYPREAKVQWKVDNALQSGNSQESVTEQDSKDSTYSLSSTLTLSKADYEKHKVYACEVTHQGLSSPVTKSFNRGEC
notes: anti-CD38 x anti-CD3; copies: 1 + 1 + 1
B2: XmAb14702 (bispecific antibody)
heavy: B1 heavy with D28T, R31Y, D54Q
scFv-Fc: not shown
light: B1 light with N32W
B3: 13928B (bispecific antibody)
Heavy Chain 1 (Anti-CD123 Fab-Fc (7G3_H0)): EVQLQQSGPELVKPGASVKMSCKASGYTFTDYYMKWVKQSHGKSLEWIGDIIPSNGATFYNQKFKGKATLTVDRSSSTAYMHLNSLTSEDSAVYYCTRSHLLRASWFAYWGQGTLVTVSAASTKGPSVFPLAPSSKSTSGGTAALGCLVKDYFPEPVTVSWNSGALTSGVHTFPAVLQSSGLYSLSSVVTVPSSSLGTQTYICNVNHKPSDTKVDKKVEPKSCDKTHTCPPCPAPPVAGPSVFLFPPKPKDTLMISRTPEVTCVVVDVKHEDPEVKFNWYVDGVEVHNAKTKPREEEYNSTYRVVSVLTVLHQDWLNGKEYKCKVSNKALPAPIEKTISKAKGQPREPQVYTLPPSREEMTKNQVSLTCDVSGFYPSDIAVEWESDGQPENNYKTTPPVLDSDGSFFLYSKLTVDKSRWEQGDVFSCSVMHEALHNHYTQKSLSLSPGK
Heavy Chain 2 (Anti-CD3 scFv-Fc (aCD3_H1.30_L1.47)): not shown
Light Chain (Anti-CD123 LC (7G3_L0)): DFVMTQSPSSLTVTAGEKVTMSCKSSQSLLNSGNQKNYLTWYLQKPGQPPKLLIYWASTRESGVPDRFTGSGSGTDFTLTISSVQAEDLAVYYCQNDYSYPYTFGGGTKLEIKRTVAAPSVFIFPPSDEQLKSGTASVVCLLNNFYPREAKVQWKVDNALQSGNSQESVTEQDSKDSTYSLSSTLTLSKADYEKHKVYACEVTHQGLSSPVTKSFNRGEC
B4: 13967 7G3_H1.109_L1.57_Fab_His (Fab, V domains shown)
VH: QVQLQQSGAEVKKPGASVKVSCKASGYTFTDYYMKWVKQSHGKSLEWMGDIIPSNGATFYNQKFKGKATLTVDRSTSTAYMELSSLRSEDTAVYYCARSHLLRASWFAYWGQGTLVTVSS
VL: DFVMTQSPDSLAVSLGERATINCKSSQSLLNTGNQKNYLTWYQQKPGQPPKLLIYWASTRESGVPDRFTGSGSGTDFTLTISSLQAEDVAVYYCQNDYSYPYTFGGGTKLEIKR
notes: also called XENP13967
B5: 13760 7G3_H0L0_Fab_His (Fab, V domains shown)
VH: EVQLQQSGPELVKPGASVKMSCKASGYTFTDYYMKWVKQSHGKSLEWIGDIIPSNGATFYNQKFKGKATLTVDRSSSTAYMHLNSLTSEDSAVYYCTRSHLLRASWFAYWGQGTLVTVSA
VL: DFVMTQSPSSLTVTAGEKVTMSCKSSQSLLNSGNQKNYLTWYLQKPGQPPKLLIYWASTRESGVPDRFTGSGSGTDFTLTISSVQAEDLAVYYCQNDYSYPYTFGGGTKLEIKR
notes: Fab of the murine 7G3 variable regions; also called XENP13760
B6: XENP14045 (anti-CD123 x anti-CD3) bispecific (bispecific antibody)
heavy: QVQLQQSGAEVKKPGASVKVSCKASGYTFTDYYMKWVKQSHGKSLEWMGDIIPSNGATFYNQKFKGKATLTVDRSTSTAYMELSSLRSEDTAVYYCARSHLLRASWFAYWGQGTLVTVSSASTKGPSVFPLAPSSKSTSGGTAALGCLVKDYFPEPVTVSWNSGALTSGVHTFPAVLQSSGLYSLSSVVTVPSSSLGTQTYICNVNHKPSDTKVDKKVEPKSCDKTHTCPPCPAPPVAGPSVFLFPPKPKDTLMISRTPEVTCVVVDVKHEDPEVKFNWYVDGVEVHNAKTKPREEEYNSTYRVVSVLTVLHQDWLNGKEYKCKVSNKALPAPIEKTISKAKGQPREPQVYTLPPSREEMTKNQVSLTCDVSGFYPSDIAVEWESDGQPENNYKTTPPVLDSDGSFFLYSKLTVDKSRWEQGDVFSCSVMHEALHNHYTQKSLSLSPGK
scFv-Fc: not shown
light: not shown
notes: XENP13967 has the same CD123 side with a different CD3 scFv

Legend:
CD3 [1] = molecular target: T2, CD3 (Homo sapiens (Human), UniProt P07766 23-126; P04234 22-105); assay: Biacore; column head 'KD (nM)*', anti-CD3 scFv-Fc H1.30_L1.47
T2 construct: not shown: The Fc carrier of the Sino Biological CD3 delta-epsilon-Fc heterodimer; copies: 1 + 1
T2 sequence (P07766 23-126 limits assumed, chain 1 of 2): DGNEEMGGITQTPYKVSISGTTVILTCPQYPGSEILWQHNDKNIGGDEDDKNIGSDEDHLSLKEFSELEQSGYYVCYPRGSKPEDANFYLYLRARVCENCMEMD
T2 sequence (P04234 22-105 limits assumed, chain 2 of 2): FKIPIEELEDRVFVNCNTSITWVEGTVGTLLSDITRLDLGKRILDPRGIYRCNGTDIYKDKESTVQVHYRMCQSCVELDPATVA

CD3 [2] = molecular target: T2, CD3; assay: Biacore
CD3 [3] = molecular target: T2, CD3; assay: Biacore; column head 'KD (nM)*', anti-CD3 scFv-Fc H1.31_L1.47
CD123 on KG-1a cells = CD123 on KG-1a cells (human, UniProt P26951 19-378); assay: cell-based or functional assay
human CD123 [4] = molecular target: T1, human CD123; assay: SPR sensorgrams on CD123 (highest trace about 160 RU); the value is printed over the panel without a name and equals the rounded KD of Figure 127
human CD123 [5] = molecular target: T1, human CD123; assay: Biacore, Fab-His on CD123 (Example 3; the sheet names no assay)
human CD123 [6] = molecular target: T1, human CD123; assay: off-rate screen of Fab-His on a Biacore CD123 chip (Example 3), relative to 7G3 H1L1 Fab
human CD123 [7] = molecular target: T1, human CD123; assay: SPR sensorgrams of the Fab on CD123 (highest trace about 153 RU); the value is printed over the panel without a name and equals the rounded KD of Figure 127
cyno CD3 = molecular target: T3, cyno CD3 (cynomolgus monkey, UniProt Q95LI5 22-117; Q95LI8 22-105); assay: method not stated in the legend of FIG. 143
T3 construct: The legend says only cyno CD3; also called cynomolgus monkey CD3
T3 sequence (Q95LI5 22-117, form in doubt, chain 1 of 2): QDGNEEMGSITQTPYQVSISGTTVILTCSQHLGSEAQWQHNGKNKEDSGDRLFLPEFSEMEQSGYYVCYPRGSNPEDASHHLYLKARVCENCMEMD
T3 sequence (Q95LI8 22-105, form in doubt, chain 2 of 2): as the sequence (P04234 22-105 limits assumed, chain 2 of 2) above, with I5V, N15K, I20V, S32T, D33N, I34N, T64A, S74N, V83L counted along it

human CD3 = molecular target: T4, human CD3 (human, UniProt P07766 23-126; P04234 22-105); assay: method not stated in the legend of FIG. 142
T4 construct: The legend says only human CD3
T4 sequence (P07766 23-126, chain 1 of 2): as the sequence (P07766 23-126 limits assumed, chain 1 of 2) above
T4 sequence (P04234 22-105, chain 2 of 2): as the sequence (P04234 22-105 limits assumed, chain 2 of 2) above

| Binder | Fold Decrease in CD3 binding from H1.30_L1.47 (CD3 [2]) | Ka (human CD123 [5]) | Kd (human CD123 [5]) | koff (human CD123 [5]) | kon (human CD123 [5]) | also measured |
| --- | --- | --- | --- | --- | --- | --- |
| B1 | 1 fold | – | – | – | – | Kd (CD3 [1]): 4.91 nM |
| B2 | 330 fold | – | – | – | – | Kd (CD3 [3]): 1640 nM |
| B3 | – | – | – | – | – | RTCC % of KG-1a cells: EC50 (read off the curve) (CD123 on KG-1a cells): ~0.8 ng/mL |
| B4 | – | 1.05e+10 M⁻¹ | 0.0954 nM | 6.25e-05 s⁻¹ | 655000 M⁻¹ s⁻¹ | Kd (human CD123 [4]): 0.1 nM |
| B5 | – | 6.25e+09 M⁻¹ | 0.16 nM | 0.000108 s⁻¹ | 674000 M⁻¹ s⁻¹ | Fold improvement in off-rate vs. H1L1 (human CD123 [6]): 7.21 fold; Kd (human CD123 [7]): 0.2 nM |
| B6 | – | – | – | – | – | Kd (cyno CD3): 5.7 nM; Kd (human CD3): 8.1 nM |
